Test results from the supplement of paper PMC9112550, “Optimization of the antimicrobial peptide Bac7 by deep mutational scanning” (BMC Biology, 2022).

Each sequence was assayed on Escherichia coli TOP10 (assay: shrunken log2 fold change of peptide-encoding DNA abundance (4.5 h post-induction vs induction); higher = less antimicrobial activity (less host growth inhibition)). Conditions: time post-induction: 4.5 h; library: site-saturation at positions 5, 18, 19, 20.
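Also: peptides expressed intracellularly from a pBAD plasmid library in pooled LB shake-flask culture, induced with 0.3% L-arabinose, DNA abundance read by NGS, three biological replicates, DESeq2 with apeglm shrinkage.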

Which “shrunken log2 fold change” value does the source give for RRIRTRPPRLPRPRPRPAVSPRP here?
The value was 0.00645.

For RRIRCRPPRLPRPRPRPLWRPRP, which “shrunken log2 fold change” value is on record?
The value was 0.397.

With RRIRTRPPRLPRPRPRPHQYPRP as the sequence, how does the “shrunken log2 fold change” value read?
Its value is -0.259.

Which “shrunken log2 fold change” value does the source give for RRIRKRPPRLPRPRPRPTEKPRP here?
Its value is 0.247.

Which “shrunken log2 fold change” value does the source give for RRIRIRPPRLPRPRPRPWDSPRP here?
Its value is -0.0632.

With RRIRYRPPRLPRPRPRPDAQPRP as the sequence, how does the “shrunken log2 fold change” value read?
The value was -0.0145.

How did the “shrunken log2 fold change” value turn out when RRIRMRPPRLPRPRPRPKCKPRP was run?
Its value is 0.365.

For RRIRKRPPRLPRPRPRPSSHPRP, which “shrunken log2 fold change” value is on record?
The value was -0.163.

RRIRMRPPRLPRPRPRPKFCPRP was tested. Which “shrunken log2 fold change” value did it give?
The value was 0.0393.

How did the “shrunken log2 fold change” value turn out when RRIRERPPRLPRPRPRPCIHPRP was run?
Its value is -0.229.

How did the “shrunken log2 fold change” value turn out when RRIRWRPPRLPRPRPRPEAGPRP was run?
Its value is 0.877.

How did the “shrunken log2 fold change” value turn out when RRIRARPPRLPRPRPRPMKGPRP was run?
Its value is -0.132.

How did the “shrunken log2 fold change” value turn out when RRIRKRPPRLPRPRPRPDLCPRP was run?
The value was 0.741.

RRIRYRPPRLPRPRPRPMCVPRP was tested. Which “shrunken log2 fold change” value did it give?
Its value is -0.227.

For RRIRIRPPRLPRPRPRPCHIPRP, which “shrunken log2 fold change” value is on record?
The value was -0.149.

RRIRKRPPRLPRPRPRPEIYPRP was tested. Which “shrunken log2 fold change” value did it give?
The value was -0.00723.

With RRIRTRPPRLPRPRPRPKYFPRP as the sequence, how does the “shrunken log2 fold change” value read?
The value was -0.444.

Which “shrunken log2 fold change” value does the source give for RRIRTRPPRLPRPRPRPGPEPRP here?
The value was 0.0888.

How did the “shrunken log2 fold change” value turn out when RRIRGRPPRLPRPRPRPWEQPRP was run?
Its value is 0.724.

Which “shrunken log2 fold change” value does the source give for RRIRERPPRLPRPRPRPIAMPRP here?
Its value is 0.188.

How did the “shrunken log2 fold change” value turn out when RRIRGRPPRLPRPRPRPCWVPRP was run?
The value was -0.00887.

How did the “shrunken log2 fold change” value turn out when RRIRFRPPRLPRPRPRPRSGPRP was run?
Its value is 0.444.

Which “shrunken log2 fold change” value does the source give for RRIRMRPPRLPRPRPRPRSCPRP here?
Its value is 0.274.

With RRIRSRPPRLPRPRPRPQRTPRP as the sequence, how does the “shrunken log2 fold change” value read?
The value was -0.036.

For RRIRNRPPRLPRPRPRPNHHPRP, which “shrunken log2 fold change” value is on record?
The value was -0.701.

RRIRWRPPRLPRPRPRPWSFPRP was tested. Which “shrunken log2 fold change” value did it give?
The value was -0.0355.

With RRIRDRPPRLPRPRPRPEFEPRP as the sequence, how does the “shrunken log2 fold change” value read?
The value was 0.824.

With RRIRPRPPRLPRPRPRPYRQPRP as the sequence, how does the “shrunken log2 fold change” value read?
The value was -0.0384.

RRIRGRPPRLPRPRPRPDNKPRP was tested. Which “shrunken log2 fold change” value did it give?
The value was -0.169.

With RRIRARPPRLPRPRPRPDLAPRP as the sequence, how does the “shrunken log2 fold change” value read?
Its value is 1.07.

With RRIRNRPPRLPRPRPRPLTGPRP as the sequence, how does the “shrunken log2 fold change” value read?
The value was 0.0323.

Which “shrunken log2 fold change” value does the source give for RRIRGRPPRLPRPRPRPPEWPRP here?
The value was 1.13.

For RRIRNRPPRLPRPRPRPDAYPRP, which “shrunken log2 fold change” value is on record?
Its value is 0.068.

Which “shrunken log2 fold change” value does the source give for RRIRYRPPRLPRPRPRPFLMPRP here?
The value was -0.922.

For RRIRMRPPRLPRPRPRPKCRPRP, which “shrunken log2 fold change” value is on record?
Its value is 0.0493.

For RRIRYRPPRLPRPRPRPNCMPRP, which “shrunken log2 fold change” value is on record?
The value was -0.974.

How did the “shrunken log2 fold change” value turn out when RRIRYRPPRLPRPRPRPIHMPRP was run?
The value was -0.0796.

For RRIRCRPPRLPRPRPRPCPGPRP, which “shrunken log2 fold change” value is on record?
The value was -0.191.

For RRIRCRPPRLPRPRPRPHWQPRP, which “shrunken log2 fold change” value is on record?
Its value is -0.365.

With RRIRERPPRLPRPRPRPKMMPRP as the sequence, how does the “shrunken log2 fold change” value read?
The value was -0.153.

With RRIRMRPPRLPRPRPRPCPGPRP as the sequence, how does the “shrunken log2 fold change” value read?
The value was -0.000588.

For RRIRARPPRLPRPRPRPRTVPRP, which “shrunken log2 fold change” value is on record?
Its value is 0.457.

RRIRIRPPRLPRPRPRPICQPRP was tested. Which “shrunken log2 fold change” value did it give?
Its value is -0.418.

For RRIRQRPPRLPRPRPRPHDWPRP, which “shrunken log2 fold change” value is on record?
The value was -0.372.

With RRIRYRPPRLPRPRPRPGAAPRP as the sequence, how does the “shrunken log2 fold change” value read?
Its value is 0.176.

With RRIRLRPPRLPRPRPRPQDMPRP as the sequence, how does the “shrunken log2 fold change” value read?
The value was -0.169.

With RRIRMRPPRLPRPRPRPPEEPRP as the sequence, how does the “shrunken log2 fold change” value read?
Its value is 2.13.

Which “shrunken log2 fold change” value does the source give for RRIRFRPPRLPRPRPRPIIMPRP here?
The value was -0.799.

How did the “shrunken log2 fold change” value turn out when RRIRPRPPRLPRPRPRPYEAPRP was run?
Its value is -0.282.

For RRIRVRPPRLPRPRPRPVETPRP, which “shrunken log2 fold change” value is on record?
The value was 0.0754.

How did the “shrunken log2 fold change” value turn out when RRIRERPPRLPRPRPRPLPLPRP was run?
Its value is -0.0754.

RRIRDRPPRLPRPRPRPVGKPRP was tested. Which “shrunken log2 fold change” value did it give?
The value was 0.0278.

RRIRARPPRLPRPRPRPKQLPRP was tested. Which “shrunken log2 fold change” value did it give?
The value was 0.155.

Which “shrunken log2 fold change” value does the source give for RRIRLRPPRLPRPRPRPLYNPRP here?
The value was -0.305.

For RRIRLRPPRLPRPRPRPRREPRP, which “shrunken log2 fold change” value is on record?
Its value is 0.223.

RRIRWRPPRLPRPRPRPKIQPRP was tested. Which “shrunken log2 fold change” value did it give?
The value was 0.21.

For RRIRVRPPRLPRPRPRPSFWPRP, which “shrunken log2 fold change” value is on record?
Its value is -0.0205.

With RRIRVRPPRLPRPRPRPYCQPRP as the sequence, how does the “shrunken log2 fold change” value read?
Its value is -1.64.

For RRIRRRPPRLPRPRPRPSHSPRP, which “shrunken log2 fold change” value is on record?
The value was -0.00512.

For RRIRRRPPRLPRPRPRPGATPRP, which “shrunken log2 fold change” value is on record?
Its value is 0.74.

Which “shrunken log2 fold change” value does the source give for RRIRKRPPRLPRPRPRPFITPRP here?
The value was -0.352.

With RRIRVRPPRLPRPRPRPAHKPRP as the sequence, how does the “shrunken log2 fold change” value read?
The value was -0.0968.

For RRIRQRPPRLPRPRPRPTPLPRP, which “shrunken log2 fold change” value is on record?
Its value is 0.487.

RRIRPRPPRLPRPRPRPRCQPRP was tested. Which “shrunken log2 fold change” value did it give?
Its value is 0.273.

Which “shrunken log2 fold change” value does the source give for RRIRYRPPRLPRPRPRPHLVPRP here?
Its value is -0.0159.

RRIRTRPPRLPRPRPRPNMNPRP was tested. Which “shrunken log2 fold change” value did it give?
The value was -0.864.

How did the “shrunken log2 fold change” value turn out when RRIRDRPPRLPRPRPRPKECPRP was run?
The value was 0.184.

How did the “shrunken log2 fold change” value turn out when RRIRRRPPRLPRPRPRPCSPPRP was run?
Its value is -0.125.

With RRIRRRPPRLPRPRPRPESCPRP as the sequence, how does the “shrunken log2 fold change” value read?
Its value is 0.763.

With RRIRARPPRLPRPRPRPMAIPRP as the sequence, how does the “shrunken log2 fold change” value read?
Its value is -0.0621.

Which “shrunken log2 fold change” value does the source give for RRIRGRPPRLPRPRPRPFTRPRP here?
Its value is 0.0912.

How did the “shrunken log2 fold change” value turn out when RRIRFRPPRLPRPRPRPPNPPRP was run?
Its value is 0.412.

RRIRTRPPRLPRPRPRPCDAPRP was tested. Which “shrunken log2 fold change” value did it give?
The value was 0.0216.

With RRIRARPPRLPRPRPRPFCQPRP as the sequence, how does the “shrunken log2 fold change” value read?
The value was -0.0229.

RRIRQRPPRLPRPRPRPFRQPRP was tested. Which “shrunken log2 fold change” value did it give?
The value was -0.148.

Which “shrunken log2 fold change” value does the source give for RRIRLRPPRLPRPRPRPVGIPRP here?
Its value is 0.102.

Which “shrunken log2 fold change” value does the source give for RRIRFRPPRLPRPRPRPPMQPRP here?
Its value is 0.115.

For RRIRARPPRLPRPRPRPHMMPRP, which “shrunken log2 fold change” value is on record?
The value was -0.12.

For RRIRMRPPRLPRPRPRPVLAPRP, which “shrunken log2 fold change” value is on record?
The value was 0.493.

For RRIRCRPPRLPRPRPRPGAWPRP, which “shrunken log2 fold change” value is on record?
Its value is 0.462.

With RRIRRRPPRLPRPRPRPIGNPRP as the sequence, how does the “shrunken log2 fold change” value read?
Its value is 0.0912.

How did the “shrunken log2 fold change” value turn out when RRIRWRPPRLPRPRPRPHANPRP was run?
Its value is -0.00914.

How did the “shrunken log2 fold change” value turn out when RRIRQRPPRLPRPRPRPVDVPRP was run?
The value was -0.208.

For RRIRMRPPRLPRPRPRPEDDPRP, which “shrunken log2 fold change” value is on record?
Its value is -0.01.

How did the “shrunken log2 fold change” value turn out when RRIRTRPPRLPRPRPRPPGRPRP was run?
Its value is 0.586.

RRIRARPPRLPRPRPRPDSVPRP was tested. Which “shrunken log2 fold change” value did it give?
The value was 0.118.

Which “shrunken log2 fold change” value does the source give for RRIRKRPPRLPRPRPRPGIAPRP here?
Its value is 1.46.

Which “shrunken log2 fold change” value does the source give for RRIRQRPPRLPRPRPRPTLYPRP here?
The value was -0.0318.

For RRIRSRPPRLPRPRPRPGHNPRP, which “shrunken log2 fold change” value is on record?
The value was -0.433.

For RRIRMRPPRLPRPRPRPEFRPRP, which “shrunken log2 fold change” value is on record?
The value was 0.275.

RRIRFRPPRLPRPRPRPKRQPRP was tested. Which “shrunken log2 fold change” value did it give?
The value was 0.401.

For RRIRNRPPRLPRPRPRPHYEPRP, which “shrunken log2 fold change” value is on record?
The value was 0.0239.

RRIRGRPPRLPRPRPRPMDTPRP was tested. Which “shrunken log2 fold change” value did it give?
The value was 1.12.

RRIRNRPPRLPRPRPRPLCIPRP was tested. Which “shrunken log2 fold change” value did it give?
The value was -0.598.

For RRIRTRPPRLPRPRPRPNEIPRP, which “shrunken log2 fold change” value is on record?
Its value is -0.128.

RRIRQRPPRLPRPRPRPDCEPRP was tested. Which “shrunken log2 fold change” value did it give?
The value was -0.00144.

Which “shrunken log2 fold change” value does the source give for RRIRIRPPRLPRPRPRPMCPPRP here?
The value was -0.0137.

RRIRARPPRLPRPRPRPHWNPRP was tested. Which “shrunken log2 fold change” value did it give?
The value was -0.0187.

For RRIRNRPPRLPRPRPRPMHIPRP, which “shrunken log2 fold change” value is on record?
Its value is -0.168.

Which “shrunken log2 fold change” value does the source give for RRIRKRPPRLPRPRPRPNAMPRP here?
The value was -0.0822.

With RRIRVRPPRLPRPRPRPQHFPRP as the sequence, how does the “shrunken log2 fold change” value read?
The value was 0.0726.

RRIRQRPPRLPRPRPRPDTCPRP was tested. Which “shrunken log2 fold change” value did it give?
The value was 0.0121.

Which “shrunken log2 fold change” value does the source give for RRIRTRPPRLPRPRPRPPQDPRP here?
The value was 0.608.

With RRIRCRPPRLPRPRPRPQRNPRP as the sequence, how does the “shrunken log2 fold change” value read?
Its value is -0.0392.

How did the “shrunken log2 fold change” value turn out when RRIRWRPPRLPRPRPRPWDAPRP was run?
Its value is 0.22.

With RRIRERPPRLPRPRPRPNDHPRP as the sequence, how does the “shrunken log2 fold change” value read?
The value was -0.622.

With RRIRQRPPRLPRPRPRPPCDPRP as the sequence, how does the “shrunken log2 fold change” value read?
Its value is -0.0587.

RRIRIRPPRLPRPRPRPWASPRP was tested. Which “shrunken log2 fold change” value did it give?
Its value is 0.00397.

With RRIRWRPPRLPRPRPRPREKPRP as the sequence, how does the “shrunken log2 fold change” value read?
The value was 1.16.
